Legend:
[1] = molecular target: biotinylated human FcRn (human) (UniProt P55899); experiment: Biacore SPR, pH 7.4
rat FcRn (rat) [2] = molecular target: rat FcRn (rat) (UniProt P13599); experiment: Biacore SPR, pH 7.4
[3] = molecular target: biotinylated human FcRn (human) (UniProt P55899); experiment: Biacore SPR, pH 6.0
[4] = molecular target: biotinylated human FcRn (p51 subunit residues 24-297 with C-terminal Avi-tag; beta2-microglobulin residues 21-119) (human) (UniProt P55899); experiment: Biacore SPR, pH 6.0
rat FcRn (rat) [5] = molecular target: rat FcRn (rat) (UniProt P13599); experiment: Biacore SPR, pH 6.0
[6] = molecular target: biotinylated human FcRn (p51 subunit residues 24-297 with C-terminal Avi-tag; beta2-microglobulin residues 21-119) (human) (UniProt P55899); experiment: Biacore SPR, pH 7.4, steady state
[7] = molecular target: biotinylated human FcRn (human) (UniProt P55899); experiment: Biacore, biotin-captured hFcRn, pH 7.4
[8] = molecular target: biotinylated human FcRn (human) (UniProt P55899); experiment: Biacore, biotin-captured hFcRn, pH 8.0
[9] = molecular target: biotinylated cynomolgus FcRn (cynomolgus) (UniProt Q8SPV9); experiment: Biacore, biotin-captured cFcRn, pH 6.0
[10] = molecular target: biotinylated cynomolgus FcRn (cynomolgus) (UniProt Q8SPV9); experiment: Biacore, biotin-captured cFcRn, pH 7.4
[11] = molecular target: biotinylated cynomolgus FcRn (cynomolgus) (UniProt Q8SPV9); experiment: Biacore, biotin-captured cFcRn, pH 8.0
[12] = molecular target: biotinylated human FcRn (human) (UniProt P55899); experiment: Biacore, biotin-captured hFcRn, pH 7.4, 1000 nM antibody
[13] = molecular target: biotinylated human FcRn (human) (UniProt P55899); experiment: Biacore, biotin-captured hFcRn, pH 8.0, 1000 nM antibody
[14] = molecular target: biotinylated cynomolgus FcRn (cynomolgus) (UniProt Q8SPV9); experiment: Biacore, biotin-captured cFcRn, pH 7.4, 1000 nM antibody
[15] = molecular target: biotinylated cynomolgus FcRn (cynomolgus) (UniProt Q8SPV9); experiment: Biacore, biotin-captured cFcRn, pH 8.0, 1000 nM antibody
[16] = molecular target: biotinylated cynomolgus FcRn (cynomolgus) (UniProt Q8SPV9); experiment: Biacore, biotin-captured cFcRn, pH 9.0, 1000 nM antibody
[17] = molecular target: biotinylated human FcRn (human) (UniProt P55899); experiment: Biacore, biotin-captured hFcRn, pH 9.0, 1000 nM antibody
[18] = molecular target: biotinylated human FcRn (human) (UniProt P55899); experiment: Biacore SPR, pH 6.0; remark: listed apart in the source
[19] = molecular target: biotinylated human FcRn (human) (UniProt P55899); experiment: Biacore, pH 6.0, apparent KD
rat FcRn (rat) [20] = molecular target: rat FcRn (rat) (UniProt P13599); experiment: Biacore, pH 6.0, apparent KD
rat FcRn (rat) [21] = molecular target: rat FcRn (rat) (UniProt P13599); experiment: Biacore SPR, pH 7.4, 1000 nM antibody
[22] = molecular target: FcRn immobilised on the FcRn affinity column (biotinylated cynoFcRn in one experiment, biotinylated hFcRn in another); experiment: FcRn affinity chromatography, linear pH gradient; species of the immobilised FcRn not given
[23] = molecular target: biotinylated human FcRn (human) (UniProt P55899); experiment: Biacore, pH 6.0
[24] = molecular target: biotinylated human FcRn (human) (UniProt P55899); experiment: Biacore SPR, pH 7.4, 1000 nM antibody
rat FcRn (rat) [25] = molecular target: rat FcRn (rat) (UniProt P13599); experiment: Biacore, pH 6.0
[26] = molecular target: biotinylated human FcRn (human) (UniProt P55899); experiment: Biacore, pH 7.4, steady state response
rat FcRn (rat) [27] = molecular target: rat FcRn (rat) (UniProt P13599); experiment: Biacore, pH 7.4, steady state response
[28] = molecular target: biotinylated human FcRn (p51 subunit residues 24-297 with C-terminal Avi-tag; beta2-microglobulin residues 21-119) (human) (UniProt P55899); experiment: Biacore; inverse ratio (RU at pH 7.4 over affinity at pH 6.0)
[29] = molecular target: Human CD16a (FcγRIIIa V158) with C-terminal HPC4 tag (human) (UniProt P08637); experiment: Biacore, FcγRIIIa V158 captured, steady-state fit, apparent KD
[30] = molecular target: biotinylated human FcRn (p51 subunit residues 24-297 with C-terminal Avi-tag; beta2-microglobulin residues 21-119) (human) (UniProt P55899); experiment: Biacore; affinity at pH 6.0 (M^-1) over steady state RU at pH 7.4
[31] = molecular target: biotinylated human FcRn (human) (UniProt P55899); experiment: Biacore, biotin-captured hFcRn, pH 6.0

rat FcRn (rat), sequence (P13599 23-298 limits assumed, chain 1 of 2): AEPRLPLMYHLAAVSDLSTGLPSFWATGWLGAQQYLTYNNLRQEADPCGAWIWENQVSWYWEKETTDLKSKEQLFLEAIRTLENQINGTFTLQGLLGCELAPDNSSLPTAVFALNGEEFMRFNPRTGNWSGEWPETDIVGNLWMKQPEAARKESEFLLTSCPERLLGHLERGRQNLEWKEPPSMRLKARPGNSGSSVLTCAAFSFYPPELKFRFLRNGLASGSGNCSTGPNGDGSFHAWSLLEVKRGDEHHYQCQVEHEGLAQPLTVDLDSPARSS
rat FcRn (rat), sequence (P07151 21-119 limits assumed, chain 2 of 2, further chain): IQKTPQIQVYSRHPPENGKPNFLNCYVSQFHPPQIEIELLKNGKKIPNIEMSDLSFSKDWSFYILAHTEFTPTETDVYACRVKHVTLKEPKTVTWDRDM
Human CD16a (FcγRIIIa V158) with C-terminal HPC4 tag (human), sequence (P08637 17-208 F176V): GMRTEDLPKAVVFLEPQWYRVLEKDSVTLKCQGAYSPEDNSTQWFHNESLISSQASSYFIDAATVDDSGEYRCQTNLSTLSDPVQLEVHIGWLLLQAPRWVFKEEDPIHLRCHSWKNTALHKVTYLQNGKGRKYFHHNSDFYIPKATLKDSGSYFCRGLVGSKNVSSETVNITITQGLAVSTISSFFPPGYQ

| Substance | Steady State RU [1] | Steady State RU (rat FcRn (rat) [2]) | Kd [3] | Ka [4] | Kd (rat FcRn (rat) [5]) | Steady State Binding, pH 7.4 (RU) [6] | Kd [7] | Kd [8] | Kd [9] | Kd [10] | Kd [11] | Steady State RU [12] | Steady State RU [13] | Steady State RU [14] | Steady State RU [15] | Steady State RU [16] | Steady State RU [17] | Kd [19] | Kd (rat FcRn (rat) [20]) | FcRn affinity column elution pH [22] | other results |
| --- | --- | --- | --- | --- | --- | --- | --- | --- | --- | --- | --- | --- | --- | --- | --- | --- | --- | --- | --- | --- | --- |
| mAb1 YTTY (M252Y/N434Y) (antibody) | 54.1 RU | 67.9 RU | 8.32 nM | 1.2e+08 M⁻¹ | 0.26 nM | 54.1 RU | 65 nM | 3300 nM | 20 nM | 83 nM | 1300 nM | 125 RU | 188 RU | 147 RU | 238 RU | 1 RU |  |  |  |  |  |
| mAb1 YTWY (M252Y/T307W/N434Y) (antibody) |  |  |  | 1.06e+08 M⁻¹ |  | 75.1 RU | 65 nM | 2500 nM | 7.7 nM | 70 nM | 1100 nM | 133 RU | 232 RU | 159 RU | 292 RU | 6.5 RU | 4 RU |  |  |  |  |
| mAb1 YEQN (M252Y/T256E/T307Q) (antibody) |  |  |  | 4.59e+06 M⁻¹ |  | 15.2 RU |  |  |  |  |  |  |  |  |  |  |  | 218 nM | 7.8 nM | 8.12 pH | koff [23]: 0.041 s⁻¹; kon [23]: 190000 M⁻¹ s⁻¹; koff (rat FcRn (rat) [25]): 0.0004 s⁻¹; kon (rat FcRn (rat) [25]): 5000 M⁻¹ s⁻¹; Steady State RU [26]: 15.2 RU; Steady State RU (rat FcRn (rat) [27]): 61.8 RU; Ratio [28]: 3.31e-06; Kd [29]: 1620 nM; Ratio (pH 6.0/pH 7.4) [30]: 302000 |
| mAb1 T256D (antibody) |  | 23.2 RU | 6700 nM |  | 86 nM |  |  |  |  |  |  |  |  |  |  |  |  | 6700 nM | 86 nM | 7.82 pH | Kd [18]: > 3000 nM; Steady State RU (rat FcRn (rat) [21]): 30.4 RU |
| mAb1 YEQY (M252Y/T256E/T307Q/N434Y) (antibody) |  |  |  |  |  |  | 79 nM | 2100 nM | 3.7 nM | 80 nM | 2500 nM | 136 RU | 213 RU | 157 RU | 264 RU | 3.4 RU | 2.4 RU |  |  |  | Kd [31]: 4.8 nM |
| mAb1 YDTY (M252Y/T256D/N434Y) (antibody) |  |  |  | 9.01e+07 M⁻¹ |  | 65.4 RU | 76 nM | 8700 nM | 13 nM | 64 nM | 2500 nM | 120 RU | 141 RU | 134 RU | 183 RU | 1.9 RU | 0.6 RU |  |  |  | Kd [31]: 15 nM |

Continued, in another order:

| Steady State RU [1] | Steady State RU (rat FcRn (rat) [2]) | Kd [3] | Ka [4] | Kd (rat FcRn (rat) [5]) | Steady State Binding, pH 7.4 (RU) [6] | Kd [7] | Kd [8] | Kd [9] | Kd [10] | Kd [11] | Steady State RU [12] | Steady State RU [13] | Steady State RU [14] | Steady State RU [15] | Steady State RU [16] | Steady State RU [17] | Kd [19] | Kd (rat FcRn (rat) [20]) | FcRn affinity column elution pH [22] | Substance | other results |
| --- | --- | --- | --- | --- | --- | --- | --- | --- | --- | --- | --- | --- | --- | --- | --- | --- | --- | --- | --- | --- | --- |
|  | 21.9 RU | 8740 nM |  | 111 nM |  |  |  |  |  |  |  |  |  |  |  |  | 8740 nM | 111 nM | 7.75 pH | mAb1 T307W (antibody) | Kd [18]: > 3000 nM; Steady State RU (rat FcRn (rat) [21]): 19.2 RU |
| 25.5 RU |  | 137 nM |  |  |  |  |  |  |  |  |  |  |  |  |  |  | 137 nM |  |  | mAb1 N434Y (antibody; other documents disagree on this pair) | koff [23]: 0.05 s⁻¹; kon [23]: 360000 M⁻¹ s⁻¹; koff [18]: 0.05 s⁻¹; kon [18]: 360000 M⁻¹ s⁻¹; koff [3]: 0.052 s⁻¹; kon [3]: 359000 M⁻¹ s⁻¹; Steady State RU [24]: 22.6 RU |
| 6.6 RU | 31.3 RU | 5720 nM |  | 58 nM |  |  |  |  |  |  |  |  |  |  |  |  | 5720 nM | 58 nM | 7.86 pH | mAb1 T307Q (antibody) | Kd [18]: > 3000 nM; Steady State RU [24]: 6.4 RU; Steady State RU (rat FcRn (rat) [21]): 24.3 RU |

— patent US20210024620A1
